Data set [1] has as its target T1, Escherichia coli σ^70 (Escherichia coli, UniProt P00579 1-613).
T1 construct: RNA polymerase sigma factor σ^70 (RpoD) of Escherichia coli; holds σR2, σR3, σR3.2 and σR4 (helices S1-S5); also called principle σ factor
The data set is described as follows: cryo-EM structure; σ appropriation complex assembled from σ^70, AsiA, RNAP core enzyme, MotA and a P_(uvsX) DNA scaffold, purified on Superose 6 in 10 mM HEPES pH 7.5, 50 mM KCl; 8 mM CHAPSO added; 3.79 Å. Particulars: both partners purified.

Data set [2] concerns the target T2, AsiA (bacteriophage T4, UniProt P32267 1-90).
T2 sequence: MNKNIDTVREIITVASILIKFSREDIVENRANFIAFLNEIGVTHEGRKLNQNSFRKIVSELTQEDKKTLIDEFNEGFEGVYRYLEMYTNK
Description: fluorescence polarization; comparable affinity to the promoter scaffold; KD only in figure; FP: 10 mM HEPES pH 7.5, 50 mM KCl, 25°C, 0.1 μM DNA, 0-100 μM AsiA; EMSA: 7 mM Tris-HCl and 50 mM Tris-Ac pH 7.9, 0.19 M KGlu, 5 mM MgAc2, 50 mM K-phosphate pH. Particulars: protein: recombinant; tags: N-His6; label: 5' 6-FAM. In general terms: Fluorescence polarisation rises when a labelled molecule tumbles more slowly, as on binding a larger partner.

T1 sequence (P00579 whole entry): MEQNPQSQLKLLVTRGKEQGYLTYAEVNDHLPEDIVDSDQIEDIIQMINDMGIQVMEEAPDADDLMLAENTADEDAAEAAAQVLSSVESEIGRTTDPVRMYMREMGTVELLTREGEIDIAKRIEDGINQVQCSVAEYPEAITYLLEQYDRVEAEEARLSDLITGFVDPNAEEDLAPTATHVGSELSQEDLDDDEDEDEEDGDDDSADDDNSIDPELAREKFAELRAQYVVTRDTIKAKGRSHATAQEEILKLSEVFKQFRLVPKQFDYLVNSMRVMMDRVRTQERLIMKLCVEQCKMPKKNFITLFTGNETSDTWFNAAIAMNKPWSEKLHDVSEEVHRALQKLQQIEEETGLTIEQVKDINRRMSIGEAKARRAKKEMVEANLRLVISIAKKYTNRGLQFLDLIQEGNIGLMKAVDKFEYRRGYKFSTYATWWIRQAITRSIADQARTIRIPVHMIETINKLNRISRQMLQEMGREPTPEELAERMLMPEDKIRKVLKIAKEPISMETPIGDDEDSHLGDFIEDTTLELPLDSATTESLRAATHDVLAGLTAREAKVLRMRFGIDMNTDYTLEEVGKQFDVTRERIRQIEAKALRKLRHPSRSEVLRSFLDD

B1: AsiA (natural protein, bacteriophage T4)
chain: MNKNIDTVREIITVASILIKFSREDIVENRANFIAFLNEIGVTHEGRKLNQNSFRKIVSELTQEDKKTLIDEFNEGFEGVYRYLEMYTNK
notes: AsiA, anti-sigma 70 protein of bacteriophage T4; synthetic gene in pET28a; A6 is the C-terminal helix; also called AisA; N-hexahistidine-tagged AsiA; source: E. coli BL21(DE3), plasmid pET28a-NH-AsiA, purified (Ni-NTA, Mono Q)
B1: the binding result in data set [1] is given as “binds”.

B2: irrelevant DNA scaffold (FP) (dsDNA)
DNA 1: GCAAATGAGCAACA
DNA 2: TGTTGCTCATTTGC
B2: the binding result in data set [2] is given as “binds”.

B3: MotA (natural protein, bacteriophage T4, UniProt P22915 1-211, looked up)
chain: MSKVTYIIKASNDVLNEKTATILITIAKKDFITAAEVREVHPDLGNAVVNSNIGVLIKKGLVEKSGDGLIITGEAQDIISNAATLYAQENAPELLKKRATRKAREITSDMEEDKDLMLKLLDKNGFVLKKVEIYRSNYLAILEKRTNGIRNFEINNNGNMRIFGYKMMEHHIQKFTDIGMSCKIAKNGNVYLDIKRSAENIEAVITVASEL
notes: synthetic gene in pET21a; source: E. coli BL21(DE3), plasmid pET21a-MotA, purified (HiTrap Heparin, Mono S)
Turning to B3, the binding result in data set [1] is given as “binds”.

The values are drawn from paper PMC6755090.
